Data: patent US20250154262A1

Columns and labels:
hFcγRIIIa-V158 (human) [1] = molecular target: hFcγRIIIa-V158 (human) (UniProt P08637); test: SPR, further study
hFcγRIIIa-V158 (human) [2] = molecular target: hFcγRIIIa-V158 (human) (UniProt P08637); test: SPR (Carterra LSA), protein AG capture
hFcγRIIIa-V158 (human) [3] = molecular target: hFcγRIIIa-V158 (human) (UniProt P08637); test: SPR (Carterra LSA), captured on protein A/G, hFcγRIIIa-V158 injected, 1:1 fit [Cont. 7]
hFcγRIIIa-V158 (human) [4] = molecular target: hFcγRIIIa-V158 (human) (UniProt P08637); test: SPR (Carterra LSA), captured on protein A/G, hFcγRIIIa-V158 injected, 1:1 fit [Cont. 5]
hFcγRIIIa-V158 (human) [5] = molecular target: hFcγRIIIa-V158 (human) (UniProt P08637); test: SPR (Carterra LSA), captured on protein A/G, hFcγRIIIa-V158 injected, 1:1 fit
hFcγRIIIa-V158 (human) [6] = molecular target: hFcγRIIIa-V158 (human) (UniProt P08637); test: SPR (Carterra LSA), captured on protein A/G, hFcγRIIIa-V158 injected, 1:1 fit [Cont. 3]

hFcγRIIIa-V158 (human), sequence (P08637 17-208 F176V limits assumed): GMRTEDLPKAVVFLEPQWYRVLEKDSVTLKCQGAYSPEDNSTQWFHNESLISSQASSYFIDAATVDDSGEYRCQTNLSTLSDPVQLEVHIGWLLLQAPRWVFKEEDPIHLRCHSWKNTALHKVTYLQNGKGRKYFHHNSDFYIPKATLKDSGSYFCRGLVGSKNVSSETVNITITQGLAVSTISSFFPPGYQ

Kd (hFcγRIIIa-V158 (human) [1])	Fold-change relative to WT (hFcγRIIIa-V158 (human) [2])	Kd (hFcγRIIIa-V158 (human) [2])	koff (hFcγRIIIa-V158 (human) [2])	kon (hFcγRIIIa-V158 (human) [2])	Substance	further results
82.6 nM	–	–	–	–	H268D, Y373W, S298A (antibody)	Fold Change vs. WT (hFcγRIIIa-V158 (human) [1]): 5.8 fold; koff (hFcγRIIIa-V158 (human) [1]): 0.0273 s⁻¹; kon (hFcγRIIIa-V158 (human) [1]): 332000 M⁻¹ s⁻¹
60.8 nM	11.8 fold	24.6 nM	0.0125 s⁻¹	509000 M⁻¹ s⁻¹	H268D_L251Q_L314M_S298A (antibody)	Fold Change vs. WT (hFcγRIIIa-V158 (human) [1]): 7.8 fold; koff (hFcγRIIIa-V158 (human) [1]): 0.0279 s⁻¹; kon (hFcγRIIIa-V158 (human) [1]): 509000 M⁻¹ s⁻¹
152 nM	–	–	–	–	H268D, L314S (antibody)	Fold Change vs. WT (hFcγRIIIa-V158 (human) [1]): 3.1 fold; koff (hFcγRIIIa-V158 (human) [1]): 0.0434 s⁻¹; kon (hFcγRIIIa-V158 (human) [1]): 286000 M⁻¹ s⁻¹
152 nM	–	87.6 nM	–	–	H268D_A330Y_D376V (antibody)	–
159 nM	–	–	–	–	H268E, L314T, D376V (antibody)	–
80.1 nM	–	–	–	–	H268D, A330F, S298A (antibody)	Fold Change vs. WT (hFcγRIIIa-V158 (human) [1]): 6 fold; koff (hFcγRIIIa-V158 (human) [1]): 0.0311 s⁻¹; kon (hFcγRIIIa-V158 (human) [1]): 389000 M⁻¹ s⁻¹
85.1 nM	–	–	–	–	H268D, L314M, S298A (antibody)	–
96.5 nM	–	–	–	–	H268D, L314N (antibody)	Fold Change vs. WT (hFcγRIIIa-V158 (human) [1]): 4.9 fold; koff (hFcγRIIIa-V158 (human) [1]): 0.0452 s⁻¹; kon (hFcγRIIIa-V158 (human) [1]): 471000 M⁻¹ s⁻¹
46.8 nM	–	–	–	–	H268D, L314T, S298A (antibody)	Fold Change vs. WT (hFcγRIIIa-V158 (human) [1]): 10.2 fold; koff (hFcγRIIIa-V158 (human) [1]): 0.0217 s⁻¹; kon (hFcγRIIIa-V158 (human) [1]): 465000 M⁻¹ s⁻¹
–	–	–	–	–	adalimumab (antibody)	Kd (hFcγRIIIa-V158 (human) [3]): 190 nM; Kd (hFcγRIIIa-V158 (human) [4]): 310 nM
95.7 nM	–	–	–	–	H268D, S298A (antibody)	–
221 nM	–	–	–	–	H268D, Y373W (antibody)	–
55 nM	–	31.1 nM	–	–	H268D_L251Q_S298A (antibody)	–
477 nM	–	289 nM	–	–	WT (from UniProt P01857 1-330) (antibody)	Kd (hFcγRIIIa-V158 (human) [3]): 350 nM; Kd (hFcγRIIIa-V158 (human) [5]): 350 nM; Kd (hFcγRIIIa-V158 (human) [6]): 290 nM
–	0.2 fold	1610 nM	0.062 s⁻¹	38500 M⁻¹ s⁻¹	L251I_L314G_A339T_A330F (antibody)	–
159 nM	–	–	–	–	H268D, L314K (antibody)	Fold Change vs. WT (hFcγRIIIa-V158 (human) [1]): 3 fold; koff (hFcγRIIIa-V158 (human) [1]): 0.0516 s⁻¹; kon (hFcγRIIIa-V158 (human) [1]): 324000 M⁻¹ s⁻¹

Kd (hFcγRIIIa-V158 (human) [1])	Fold-change relative to WT (hFcγRIIIa-V158 (human) [2])	Kd (hFcγRIIIa-V158 (human) [2])	koff (hFcγRIIIa-V158 (human) [2])	kon (hFcγRIIIa-V158 (human) [2])	Substance	further results
–	8.4 fold	34.5 nM	0.0223 s⁻¹	647000 M⁻¹ s⁻¹	H268D_L251W_L314N (antibody)	–
125 nM	3.5 fold	83 nM	0.026 s⁻¹	314000 M⁻¹ s⁻¹	H268D_L314T (antibody)	Fold Change vs. WT (hFcγRIIIa-V158 (human) [1]): 3.8 fold; koff (hFcγRIIIa-V158 (human) [1]): 0.0481 s⁻¹; kon (hFcγRIIIa-V158 (human) [1]): 384000 M⁻¹ s⁻¹
–	2.4 fold	123 nM	0.049 s⁻¹	397000 M⁻¹ s⁻¹	H268D_L251W_S267D_Y373W (antibody)	–
–	1.2 fold	251 nM	0.0344 s⁻¹	137000 M⁻¹ s⁻¹	S298A_A330Y_Y373W (antibody)	–
–	–	104 nM	–	–	L251F (antibody)	–
–	4 fold	72.8 nM	0.0682 s⁻¹	936000 M⁻¹ s⁻¹	H268D_L251W (antibody)	–
–	3.1 fold	93.9 nM	0.03 s⁻¹	319000 M⁻¹ s⁻¹	H268D_L251Q_L314M (antibody)	–
–	1.6 fold	179 nM	0.045 s⁻¹	252000 M⁻¹ s⁻¹	L314W_A339T_A330M_D376T (antibody)	–
–	3.1 fold	92.8 nM	0.0231 s⁻¹	249000 M⁻¹ s⁻¹	H268D_L251W_L314V (antibody)	–
–	3.1 fold	93.3 nM	0.0206 s⁻¹	221000 M⁻¹ s⁻¹	S298A_A330Y_A339T_Y373W (antibody)	–
–	4.4 fold	66.3 nM	0.019 s⁻¹	287000 M⁻¹ s⁻¹	H268D_A330Y_A339T_Y373W (antibody)	–
–	2.6 fold	111 nM	0.0391 s⁻¹	353000 M⁻¹ s⁻¹	S267D_A330Y_L251W (antibody)	–
–	3.9 fold	74.6 nM	0.044 s⁻¹	590000 M⁻¹ s⁻¹	H268D_L251W_A330Y_Y373W (antibody)	–
119 nM	–	–	–	–	H268D, S267D, A339T (antibody)	Fold Change vs. WT (hFcγRIIIa-V158 (human) [1]): 4 fold; koff (hFcγRIIIa-V158 (human) [1]): 0.0525 s⁻¹; kon (hFcγRIIIa-V158 (human) [1]): 442000 M⁻¹ s⁻¹
–	4 fold	73 nM	0.027 s⁻¹	370000 M⁻¹ s⁻¹	H268D_L251F_L314S (antibody)	–
–	–	133 nM	–	–	H268D_L314K_L251Q (antibody)	–
